Data reported in patent US20260085128A1 (BIOLEGEND, published 2026).
Values belong to the binder of their own block, whether it stands above or below them.

How the values were obtained:
[1] = molecular target: T1, human CD157 (human, UniProt Q10588 33-293); assay: flow cytometry, summary sentence of Example 3
T1 construct: Endogenous CD157 on human U-937 cells and on human blood monocytes and granulocytes; also called BST-1; bone marrow stromal cell antigen 1
T1 sequence: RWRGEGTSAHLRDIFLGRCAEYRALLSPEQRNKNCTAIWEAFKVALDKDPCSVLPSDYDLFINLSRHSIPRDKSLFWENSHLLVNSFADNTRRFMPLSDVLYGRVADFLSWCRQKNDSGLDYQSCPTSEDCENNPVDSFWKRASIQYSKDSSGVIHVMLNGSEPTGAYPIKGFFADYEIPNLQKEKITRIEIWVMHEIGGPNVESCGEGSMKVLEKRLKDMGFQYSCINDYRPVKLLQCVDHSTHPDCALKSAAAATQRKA

[2] = molecular target: T1, human CD157; assay: flow cytometry on U-937 cells, anti-rat IgG-PE secondary
Protocol: U-937 cells were grown in RPMI media supplemented with 10% FBS in T75 culture flask, to about 80% confluency. Various concentrations of exemplary generated anti-CD157 antibodies were added, including 2, 1, 0.5, 0.25, 0.125 and 0.06 μg, and allowed to incubate for 15 minutes. Cells were then washed twice with FACS wash buffer and stained with anti-rat IgG-PE secondary antibody for 15 minutes. Cells were washed with FACS buffer and analyzed on a BD LSRII flow cytometer.

binding result [1]: binds
B1: anti-CD157 monoclonal antibody AB3 (antibody, V domains shown)
VH: EVHLVESGGGLVQPGRSLKLSCAASGFTFSNYDMAWIRQAPAKGLEWVASISIRGGSTYYRDSVKGRFTVSRDNAKSTLYLQMDSLRSEDTATYYCVRGTDYYYDYFDYWGQGVMVTVSS
VL: NIQMTQSPSLLSASVGDRVTLSCKAGRNINSYLAWYQQMLGEAPKLLIYNANSLQTGIPSRFSGSGSGTDYTLTISSLQPEDVATYFCQQYNSWTNTFGAGTKLELK
notes: Hybridoma-derived monoclonal antibody; It was detected with an anti-rat IgG-PE secondary antibody; also called antibody 3; clone 3

binding result [2]: binds
B2: anti-CD157 monoclonal antibody AB1 (antibody, V domains shown)
VH: QVQLKESGPGLVQPSQTLSLTCTVSGFSLTSYHVSWVRQPPGKGLEWMGIIWTGGSTAYNSLLKSRLSISRDTSKSQVFLKMNSLQTEDTATYYCARSITPTFFDYWGQGVMVTVSS
VL: QFVLTQPNSVSTNLGSTVKLSCKRSTGNFGNNYVNWYQQHEGRSPTTMIYRDDKRPDGVPDRFSGSIDRSSNSALLTISNVQTEDEADYFCQSYSSGIVFGGGTKLTVL
notes: Hybridoma-derived monoclonal antibody; It was detected with an anti-rat IgG-PE secondary antibody; also called antibody 1; clone 1
